Source: the nanobody polyreactivity screen of Harvey et al. (2022)

Assay: yeast display, Sf9 membrane polyspecificity reagent, FACS + sequencing; frameworks hold sequencing errors
Procedure, shortened: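 Genes from sorted yeast were amplified by colony PCR, read by MiSeq 2 × 250 sequencing and filtered on CDR length. These cells carried a synthetic nanobody library in Saccharomyces cerevisiae BJ5465 and were sorted by FACS into low and high (top ~1%) gates on anti-HA and streptavidin fluorescence. Polyreactivity is labelled according to the gate of origin.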

Sequence: QVQLVESGGGLVQAGGSLRLSCAASGSIFNRNAMGWYRQAPGKERELVAVISWTGDGTYYADSVKGRFTISRDNAKNTVYLQMNSLKPEDTAVYYCAARWYVQFYHRPVSKRYYWGQGTQVTVSS
- polyreactivity (PSR sort gate): high polyreactivity

Sequence: QVQLVESGGGLVQAGGSLRLSCAASGFTFSSYAMGWYRQAPGKERELVAAITWGGGRTYYADSVKGRFTISRDNAKNTVYLQINSLKPEDTAVYYCNVPQWVSIWRKNNYWGLGTQVTVSS
- polyreactivity (PSR sort gate): high polyreactivity

Sequence: QVQLVESGGGLVQAGGSLRLSCAASGLTFYHYTMGWYRQAPGKERELVAAITKNGGSTYYADSVKGRFTISRDNAKNTVYLQMNSLKPEDTAVYYCNVGPRRVDRSRAASSDYDYWGQGTQVTVSS
- polyreactivity (PSR sort gate): high polyreactivity

Sequence: QVQLQESGGGLVQAGASLRLSCAASGTIFLFRNMGWHRQAPGKERELVAGINGGTTTYYADSVIGRFTISRDNAKNTVYLQMNSLKPDDTAVYNCAAGASRLTYYDYWGLGTQVTVSS
- polyreactivity (PSR sort gate): low polyreactivity

Sequence: QVQLVESGGGLVQAGGSLRLSCAASGSIFQRNAMGWYRQAPGKERELVAAISRSGGRTYYADSVKGRFTISRDNAKNTVYLQMNILKPEDTAVYYCAADSPYIQNRFEYWGQGTQVTVSS
- polyreactivity (PSR sort gate): high polyreactivity

Sequence: QVQLVESGGGLVQAGGSLRLSCAASGSIFSGYMGWYRQAPGKDRELVATITSGGSTYADSVKGRFTISRDNAKNSVYLQMNILKPEDTAVYYCARPRPVIQYSGLHYDYWGQGTEVTVSS
- polyreactivity (PSR sort gate): low polyreactivity

Sequence: QDQLVESGGGLVQAGGSLRLSCAASGFIFIPNAMGWYRQAPRKERELVAAISFSDGTTYYADSVKGRFTISRDYEKNTVYLQMNSLKPEDTAVYYCAAEGYQSQYDYWGQGTQVTVSS
- polyreactivity (PSR sort gate): high polyreactivity

Sequence: QVQLVESGGGLVQAGGSLRLSCAASGSTIEPNSMGWYRQAPGKEREFVAAITTRGGSTFYADSVKGRFTISRDNAKNTVYLQMNSLKPEDTAVYYCAADYYFVDYDYWGQGTQVTVSS
- polyreactivity (PSR sort gate): low polyreactivity

Sequence: QVHLVESGGGLVQAGGSLRLICAASGRILYLYAMGWYRQAPGKERELVARISQRDGSTYYADSVKGRFTISRDNAKNTVYLQMNSLKPEDTAVYYCNADFYLGSYGYSYDYWGQGTQVTVSS
- polyreactivity (PSR sort gate): low polyreactivity

Sequence: QVQLVESVGGLVQAGGSLRLSCAASGRTFSFYAMGRYRQRQGKESELVAGIDGNDGSTYYADSVKGRFTISRDNAKNTVYIQMNSLKPEDTAVYYCNAEKWTGQYCCYYRMYYYWGQGTQVTVSS
- polyreactivity (PSR sort gate): low polyreactivity

Sequence: QVHLVESGGGLVQAGGSLRLSCAASGFTFRGYAMGWYRQAPGTERELVAAVSGSGGRTHYADSVKGRFTISRDNAKNTVYLQMNSLKPEDTAVYYCNARGRASATGRRGRPDPFGYWGQGTQVTVSS
- polyreactivity (PSR sort gate): high polyreactivity

Sequence: QVQRVESGGGLVQAGGSLRLSSADSGSTLSGYAMGWYRQAPGKERELVATIRITGGRTYYADSVKGRFTISRDNAKNTVYLQMNSLKPEDTAVYYCNVRSRRRVSSYDYWGQGTQVTVSS
- polyreactivity (PSR sort gate): high polyreactivity

Sequence: QVQLVESGGGLVQAGGSLRLSCAASGFTFYGYAMGWYRQAPGKERELVAAISSRGSRTYYADSVKGRFTISRDNAKNTGYLQMNSLKPEDTAFYYCAVDKAITQGLYDYWGQGTQVTVSS
- polyreactivity (PSR sort gate): high polyreactivity

Sequence: QVQLVESGGGLVQAGGSLRLSCAASGSIFQINAMGWYRPAPGKERECVASITYSGGSTYYADSVKGRFTISRDNAKNTVYLQMNSLKPEDTAVYYCAAESYWGYDYWGQGTQVTVSS
- polyreactivity (PSR sort gate): high polyreactivity

Sequence: QVQLVESGGGLVQAGGSLRLSCAASGFIFLWNAMAWYRQAPGKELDLVAAINRGTSTNYADSVKGRFTISRDNAKNTVYLQMNSLKPEDTAVYYCAVSVLPWQMYSESYAEYDYWGQGTQVTVSS
- polyreactivity (PSR sort gate): low polyreactivity

Sequence: QVQLVESGGGLVQAGGSLRLSCAASGRIFNRYAMGWYRQAPGKERELVAAITSGGDTNYADSVKGRFTISRDNAKNTVYLQMNSLKPEDTAVYYCNARSRGRASGYDYWGQGTQVTVSS
- polyreactivity (PSR sort gate): high polyreactivity

Sequence: QDQLVESGGGLVQAGGSLRLSCAASGRTFKINAMGWYRHAPGTERELVAAITYSGCTTYYADSVKGRFTISRDNAKNTVYLQMNSLKPEDTAVYYCATPSRKSGVGYPSYNYWGQGTQVTVSS
- polyreactivity (PSR sort gate): high polyreactivity

Sequence: QVQLVESGGGLVQAGGSLRLSCAASGRIFFKNTMGWYRQAPGNESELVAAITSSGSSTYYADSVKARFTISRDNSKNNVYLQMNSLKPEDTAVYYCNALTWDHSRTGVDYWGQGTQVTVSS
- polyreactivity (PSR sort gate): low polyreactivity

Sequence: QVQLVESGGGLVQAGGRLRLSCAASGRIFDTYAMGWYRQAPGKERELVASINWSAGSTYYADSVKGRFTISRDNAMNTVYLQMNSLKPEDTAVYYCATYSSYYWQSSYVYWEFDYWGQGTQVTVSS
- polyreactivity (PSR sort gate): high polyreactivity

Sequence: QVQLVESGGGLVQAGGSLRLSCAATGFTIAWYTMGWYRQAPGKERELVAAISLNGGSKYYADSVKGRFTISRDNAKNTVYLQMNSLKPDDTAVYYCAKGYRWPYYPYDYWGQGTQVTVSS
- polyreactivity (PSR sort gate): low polyreactivity

Sequence: QVQLVESGGGLVQAGGSLRLSCAASGITIKRYAMGWYRQAPGKEREFVATISQSGTSTYYADSVKGRFTISRDNAKTTVYLQMISLKPEDTAVYYCAADFIGYWYGYYSWGQGTQVTVSS
- polyreactivity (PSR sort gate): low polyreactivity

Sequence: QVQIVESGGGLVQAGGSLRLSCAASGSTFGYYTMGWYRQAPGKERELVAAISWSGGSTYYADSVKGRFTISRDNAKNTVYLQKNSLKPEDTAVYYCAALGYTYKYYSYYWGQGTQVTVSS
- polyreactivity (PSR sort gate): high polyreactivity

Sequence: QVQLVESGGGLVQAGGSLRLSCAASGSILSLNGMGWYRQAPGKERELVAVIRSGGSTYYADSVKGRFTISRDNAKNTVYLQMNSLKPEDTAVYYCNAQDYLTTVPDPEYDYWGQGTQVTVSS
- polyreactivity (PSR sort gate): low polyreactivity

Sequence: QVHLVESGGGLVQAGGSLRLSCAASGSTFSIYAMGWYRQAPGKERELVAAINSGGDTNYADSVKGRFTISRDNAKNTVYLQMNSLKPEDTAVYYCAKQVYTSRRSRGRYGFGYWGQGTQVTVSS
- polyreactivity (PSR sort gate): high polyreactivity

Sequence: QVQLVESGGGLVQAGGSLRLSCAASGNTFDIYAMGWYRQAPGKERELVAAISRRGGSTYYADSVKGRFTISRDNAKNTVYLQMNSLKPEDTAVYYCNAKHKITHSSSDYWGQGTQVTVSS
- polyreactivity (PSR sort gate): high polyreactivity

Sequence: QVQLQESGGGLVQAGGNLRLSCAASGYISRWYGMGWYRQAPGKERELVAGMSPGGSTYYADSVKGRITISRDNAKNTVYLQMNSLKPEDTAVYYCAAQDFQDSIYFYWGQGTQVTVSS
- polyreactivity (PSR sort gate): high polyreactivity

Sequence: QVQLEESGGGLVQAGGSLRLSCAASGRTFSANTMGLYRKATGKERELVAAISKSGGSTYYADSVKGRLTISRDTAKYTVYLQMNSLNPEDTAVYYCAARTSGYWYSYGSWGQGTQVTVSS
- polyreactivity (PSR sort gate): high polyreactivity

Sequence: QVQLVESGGGLVQAGGSLRLSCAASGIIFGSYAMGWYRQAPGKERELVAGISKIGGRTYYADSVKGRFTISRDNAKNTVYLQMNSLKPEDTAVYYCNKVRTRERTDYDYWGQGTQVTVSS
- polyreactivity (PSR sort gate): low polyreactivity

Sequence: QVQLVESGGGLVQAGGSLRLSCAASGFTISQYAMGWYRQAPGKERELVAVISINGGSTYYADSVKGRFTISRDNAKNTVYLEKNSLKPEDTAVYYCAADDTDSEDYGYDYWGQGTQVTVSS
- polyreactivity (PSR sort gate): low polyreactivity

Sequence: QVQLVESGGGLVQAGGSLRLSCAASGLTFDRYGMGWYRQAPGKERELVAAIDGSGTSTYYADSVKGRFTISRDNAKNTVYLQMNSLKPEDTAVYYCNAYWTYEFPSYDYWGQGTQVTVSS
- polyreactivity (PSR sort gate): low polyreactivity

Sequence: QVQVVESGGGLVQAGGSLRLSCAASGFTSTRYAMGWYRQAPGKERELVAAISYGGGDTYYADSVKGRFTISRDNAKNSVYLQMNSMKPEDTAVYYCNARGRYRKSERRAFDYWGQGTQVTVSS
- polyreactivity (PSR sort gate): high polyreactivity

Sequence: QVQLVESGGGLVQAGGSLRLSCDASGSTLSENVMGWYRQAPGKERELVATISYSGDSTYYADSVKGRFTISRDNAKNTVYLQMNSLKPEDTAVYYCAAGVGWDFAYWGQGTQVTVSS
- polyreactivity (PSR sort gate): low polyreactivity

Sequence: QVQLVESGGGLVQAGGSLRLSCAASGSTIYVYAMGWYRHPPGKERELVAAISTAGGRTSYADSVKGRFTISRDNAQNTVYLQMNSLKPEDTAVYYCAARSTLYRSIRYDYWGQGTQVTVSS
- polyreactivity (PSR sort gate): high polyreactivity

Sequence: QVQLVESGGGLVQAGGSLRLSCAASGSTFPTYAMGWYRQAPGKERELVADITWSGGSTYYADSVKGRFTISRDNAKNTVYLQMNSLKPEDTAVYYCNAAHRKGMYYWGQGTQVTVSS
- polyreactivity (PSR sort gate): high polyreactivity

Sequence: QVQLVESGGGLVQAGGSLRLSCAASGTFQRYAMGWYRQAPGKERELVAGISSAGDTNYADSVKGRFTISRDNAKNTVYLQMKSLKPEDTAVYYCNAAYFAGPADDKFDYWGQGTQVTVSS
- polyreactivity (PSR sort gate): low polyreactivity

Sequence: QVQLVESGGGLVQAGGSLRLSCAASVFTFTHYAMGWYRQSAGKERELVAAISTSGVSTYYSDSVKGRFTISRDNAKNTVYLQMNSLKPEDTAVYYCAARRDGWFQWGYYYWGQGTQVTVSS
- polyreactivity (PSR sort gate): low polyreactivity

Sequence: QVNLVQSAGGLVQAGCSLRLSCPASGFILYKNAMGRYRQKPGKERELVAISSSGGSTYYADSVKGRFTISRENAKNTVYLLMNSLKPEDTAVYYCGAYIYGTYYYWGQGTQVTVSS
- polyreactivity (PSR sort gate): high polyreactivity

Sequence: QVQLVESGGGLVQARGSLRLSCAASGSTLRRYAMGWYRQAPGKERELVAAISSSGGSTYYADSVKGRFTISRDNAKNTVYLQMNSLKPEDTAVYYCAALVRKRVNTYQGYYPGDYWGQGTQGTVSS
- polyreactivity (PSR sort gate): high polyreactivity

Sequence: QVQLVESGGGLVQAGGSLRLSCAASGRNFYPYAMVWYRQAPGKERELVAAISKSGGRTYYADSVKGRFTISRDNAKNTVDLQMNSLKPEDTAVYYCNAAPGYTYVTYDYWGQGTLVTVSS
- polyreactivity (PSR sort gate): high polyreactivity

Sequence: QVQLVESVRGLVHAGGSLRLSCAASGSTFYPYRMGGYRQAPGKEREFVAAITWSGGSTYYADSVKGRFTISRDNAKNTVYLQMNSLKPEDTAVYYCNKDARWYAYNSEYDHWGQGTQVSVSS
- polyreactivity (PSR sort gate): low polyreactivity

Sequence: QVQLVESGGGLVQAGGTLRLSCAATGFTFYEYAMGWYRQAPGKERELVAGIRRSGDSTYYADSVKGRFTISRDNAKNTVYLQMNILKPEDTAVYYCAKGWYRIKRNDYWGQGTQVTVSS
- polyreactivity (PSR sort gate): low polyreactivity

Sequence: QVQLVESGGRLVQAGGSLRLSCDASGRTFGKYALGWYRQAPGKEREFVATITRSGDSTYYADSVKGRFTISRDNAKNTVYLQMNSLKPEDTAVYNCAKDTYGVLSYFQVSREYWGQGTQVTVSS
- polyreactivity (PSR sort gate): low polyreactivity

Sequence: QVQLVESGGGLVQAGGSLRLSCAASGRIFYTYVMGWYIQAPGKERELVASISSSGGSTNYADSVKGRFTISRDNAKNTVYLQMNSLKPEDTAVYYCNKDYIHVSYREDYWGQGTQVTVSS
- polyreactivity (PSR sort gate): low polyreactivity
